Patent US12180519B2, “Cocaine esterase mutant and use thereof” (Hangzhou Normal University, priority 2021, dated 2024)
Residue numbers refer to the chain shown, from its start. Names and notes keep the numbering of the source.

B1: V116K: cocaine esterase mutant, 116th valine mutated into lysine (protein, listed as Rhodococcus sp.)
chain: MVDGNYSVASNVMVPMRDGVRLAVDLYRPDADGPVPVLLVRNPYDKFDVFAWSTQSTNWLEFVRDGYAVVIQDTRGLFASEGEFVPHVDDEADAEDTLSWILEQAWCDGNVGMFGKSYLGVTQWQAAVSGVGGLKAIAPSMASADLYRAPWYGPGGALSVEALLGWSALIGRQLITSRSDARPEDAADFVQLAAICNDVAGAASVTPLAEQPLLGRLIPWVIDQVVDHPDNDESWQSISLFERLGGLATPALITAGWYDGFVGESLRTFVAVKDNADARLVVGPWSHSNLTGRNADRKFGCAATYPIQEATTMHKAFFDRHLRGETDALAGVPKVRLFVMGIDEWRDETDWPLPDTAYTPFYLGGSGAANTSTGGGTLSTSISGTESADTYLYDPADPVPSLGGTLLFHNGDNGPADQRPIHDRDDVLCYSTEVLTDPVEVTGTVSARLFVSSSAVDTDFTAKLVDVFPDGRAIALCDGIVRMRYRETLVNPTLIEAGEIYEVAIDMLATSNVFLPGHRIMVQVSSSNFPKYDRNSNTGGVIAREQLEEMCTAVNRIHRGPEHPSHIVLPIIKR
B2: Wildtype WT: wildtype bacterial cocaine esterase, amino acid sequence SEQ ID No. 1 (protein, listed as Rhodococcus sp.)
chain: B1 chain with K116V
B3: T172R/G173Q/L196C/I301C/V116K/A51V: cocaine esterase mutant of SEQ ID No. 1 with the named mutations (protein, UniProt Q9L9D7 1-574, looked up, variant T172R G173Q L196C I301C V116K A51V)
Cocaine esterase: B1 chain with A51V
B4: T172R/G173Q/L196C/I301C/V116K: cocaine esterase mutant of SEQ ID No. 1 with the named mutations (protein, UniProt Q9L9D7 1-574, looked up, variant T172R G173Q L196C I301C V116K)
Cocaine esterase: B1 chain
B5: T172R/G173Q/L196C/I301C/V116K/A51W: cocaine esterase mutant of SEQ ID No. 1 with the named mutations (protein, UniProt Q9L9D7 1-574, looked up, variant T172R G173Q L196C I301C V116K A51W)
Cocaine esterase: B1 chain with A51W
B6: T172R/G173Q/V116K: cocaine esterase mutant of SEQ ID No. 1 with the named mutations (protein, UniProt Q9L9D7 1-574, looked up, variant T172R G173Q V116K)
Cocaine esterase: B1 chain with C196L, C301I
B7: T172R/G173Q: CocE T172R/G173Q mutant that completed the clinical test II phase of cocaine detoxification (protein, listed as Rhodococcus sp.)
chain: B1 chain with K116V
B8: T172R/G173Q/L196C/I301C/V116K/A51Y: cocaine esterase mutant of SEQ ID No. 1 with the named mutations (protein, UniProt Q9L9D7 1-574, looked up, variant T172R G173Q L196C I301C V116K A51Y)
Cocaine esterase: B1 chain with A51Y
B9: T172R/G173Q/L196C/I301C: cocaine esterase mutant with the named mutations, comparator without V116K (protein, listed as Rhodococcus sp.)
chain: B1 chain with K116V
B10: T172R/G173Q/L196C/I301C/V116K/A51F: cocaine esterase mutant of SEQ ID No. 1 with the named mutations (protein, UniProt Q9L9D7 1-574, looked up, variant T172R G173Q L196C I301C V116K A51F)
Cocaine esterase: B1 chain with A51F
B11: T172R/G173Q/L196C/I301C/V116K/A51L: cocaine esterase mutant of SEQ ID No. 1 with the named mutations (protein, UniProt Q9L9D7 1-574, looked up, variant T172R G173Q L196C I301C V116K A51L)
Cocaine esterase: B1 chain with A51L

Experiment: Enzyme activity analysis: in vitro catalytic reaction of CocE enzymes to substrate BZE (HPLC, Michaelis-Menten)
Format: biochemical
Settings: not given
Source text: Firstly, an experimental method for detecting a substrate BZE and a product benzoic acid BA by HPLC was established. Both BZE and BA had strong ultraviolet absorption at 230 nm. In HPLC analysis, acetonitrile and 0.1% formic acid were used as mobile phases to separate BZE and BA by C18 liquid chromatography column. The absorption of BZE and BA at wavelength 230 nm was detected by an ultraviolet detector, and linear standard curves of BZE and BA were obtained. The activity of BZE reaction catalyzed by CocE was determined, and the reaction temperature was 25° C., with three repetitions in each group. An enzymatic reaction was started by 50 μL of substrate BZE solution with 50 μL of enzyme solution (diluted with 0.1 M phosphate buffer (pH 7.4)).
50 μL of 10% perchloric acid was added to stop the reaction, and then, 50 μL of acetonitrile was added, and the mixture was centrifuged at 12,000 rpm for 5 minutes. Then, the supernatant was diluted to an appropriate multiple and injected into […]. The peak time, peak areas and curves of BZE and BA were compared, and the residual BZE concentration and the BA concentration in the reaction sample were calculated. The kcat and KM of each mutant could be obtained by calculating the reaction rates of BA catalyzed by enzyme at different substrate concentrations, drawing a kinetic curve of the enzyme reaction with GraphPad Prism 8, and performing Michaelis-Menten kinetic analysis.
In the case of B1, the “catalytic efficiency on benzoylecgonine compared with the wildtype enzyme (in words)” value is reported as “greatly improved”.

Same assay, conditions: substrate BZE
For B2, the “RCE, ratio of catalytic efficiency of the mutant enzyme to BZE and that of the wildtype enzyme” value (shortened to “RCE, ratio”) was 1.0.
With B3 the “RCE, ratio” value was 137.6.
With B4 the “RCE, ratio” value was 210.3.
With B5 the “RCE, ratio” value was 132.5.
With B1 the “RCE, ratio” value was 61.2.
For B6, the “RCE, ratio” value was 110.8.
In the case of B7, the “RCE, ratio” value is reported as 1.6.
In the case of B8, the “RCE, ratio” value is reported as 357.4.
With B9 the “RCE, ratio” value was 2.6.
In the case of B10, the “RCE, ratio” value is reported as 211.8.
In the case of B11, the “RCE, ratio” value is reported as 536.5.

Same assay, conditions: substrate BZE, 25° C., 0.1 M phosphate buffer pH 7.4
In the case of B2, the Km is reported as 5150 µM and the kcat is reported as 5.02 s⁻¹.
Work on B3 yielded a Km of 86.2 µM and a kcat of 11.55 s⁻¹.
For B4, the Km was 46.3 µM and the kcat was 9.477 s⁻¹.
In the case of B5, the Km is reported as 95.6 µM and the kcat is reported as 12.34 s⁻¹.
In the case of B1, the Km is reported as 89.6 µM and the kcat is reported as 5.34 s⁻¹.
Molecule B6 has a Km of 65.6 µM and a kcat of 7.087 s⁻¹.
For B7, the Km was 4360 µM and the kcat was 6.978 s⁻¹.
B8 gave a Km of 43.6 µM and a kcat of 15.18 s⁻¹.
For B9, the Km was 3710 µM and the kcat was 9.278 s⁻¹.
Work on B10 yielded a Km of 59.3 µM and a kcat of 12.23 s⁻¹.
In the case of B11, the Km is reported as 27.8 µM and the kcat is reported as 14.6 s⁻¹.

Experiment: High-activity CocE mutant accelerated BZE metabolism in vivo (rat blood BZE and BA by HPLC)
Parameters: species or system SD rats
Settings: 0.2 or 1 mg/kg mutant i.v., then 2 mg/kg BZE i.v.; FIGS. 3A and 3B
Method: Experimental male SD rats (200 g/rat) purchased from Laboratory Animal Center of Zhejiang Academy of Medical Sciences were raised in a constant-temperature and constant-humidity environment. The feeding and experimental application was carried out by following Guide for the Care and Use of Laboratory Animals.
Blood was collected from the femoral vein of rats using a blood collection needle and a heparin-treated capillary. Firstly, eight tubes of blood from the same rat, 75 μL in each tube, were added to 100 μL of 250 μM paraxon to inhibit the effect of endogenous metabolizing enzymes on BZE, and frozen at −80° C. After thawing, 19.7 μL of mixed solution containing 0, 4, 10, 20, 40, 60, 100 and 200 μM BA and BE standards, then subjected to vortex for 20 seconds, and then added with 150 μL of acetonitrile and subjected to vortex for 1 minutes, then added with 50 μL of 10% HClO4 and subjected to vortex for 1 minutes, centrifuged at 17,000 rcf for 15 minutes, and then centrifuged again after the supernatant was transferred. 250 μL of supernatant were taken out for HPLC analysis. The sample volume was 100 μL, and the HPLC experimental conditions were the same as those in Embodiment 3. The concentrations of BZE and BA in the final standard samples were 0, 0.2, 0.5, 1, 2, 3, 5 and 10 μM respectively.
There were 5 rats in each group. Firstly, 0.2 or 1 mg/kg of high-active CocE mutant or normal saline was injected into the tail vein of rats, and 2 mg/kg BZE was injected into the tail vein within 1 minute. After BZE injection, 75 μL of blood samples were taken at the 0th, 2nd, 5th, 10th, 30th, 60th, 90th and 120th minutes respectively, and 100 μL of 250 μM paraxon were added in each sample, and then frozen at −80° C. After thawing, the samples were subjected to vortex for 20 seconds, then added with 150 μL of acetonitrile and subjected to vortex for 1 minute, then added with 50 μL of 10% HClO4 and subjected to vortex for 1 minute, centrifuged at 17,000 g for 15 minutes, and then centrifuged again after the supernatant was transferred. 250 μL of supernatant were taken out for HPLC analysis. The sample volume was 100 μL. The BA and BZE concentrations in the blood of rats in each group at different time points were calculated according to the blood sample standard curve of the standards, so as to obtain the metabolism of BZE with or without the high-activity CocE mutant.
In the case of B3, the “BZE metabolism in rats (in words)” value is reported as “accelerating BZE metabolism”.
In the case of B11, the “BZE metabolism in rats (in words)” value is reported as “accelerating BZE metabolism”.

Same assay, conditions: rats, 2 mg/kg BZE i.v. without mutant, second minute
For `CN1[C@H]2CC[C@@H]1[C@@H](C(=O)O)[C@@H](OC(=O)c1ccccc1)C2` [BZE, benzoylecgonine, reference compound], the “BA concentration in the blood” value was “less than 0.5 μM” and the “BZA concentration in the blood” value was 15.8 µM.

Experiment: not given
Settings: in vivo; cited from earlier work
In the case of `COC(=O)[C@H]1[C@@H](OC(=O)c2ccccc2)C[C@@H]2CC[C@H]1N2C` [cocaine], the “share of cocaine bio-converted by BChE and CE-2 to ecgonine methyl ester (EME)” value is given as “about 40%” and the “share of cocaine hydrolyzed by CE-1 in liver to benzoyllecgonine (BZE)” value is given as 45%.
